{"source": "the DeepSol protein solubility set"}
{"assay": "soluble on expression in E. coli; label from the status in PepcDB or PDB records"}
{"sequence": "RSFAKDLEAKQKMSLTSWFLVSSGGTRHRLPREMIFVGRDDCELMLQSRSVDKQHAVINYDASTDEHLVKDLGSLNGTFVNDVRIPEQTYITLKLEDKLRFGYDTNLFTVVQGEMRVPEEALKHEKFTIQLQLSQKSSESELSKSASAKSIDSKVADAATEVQHKTTEALKSEEKAMDISAMPRGTPLYGQPSWWGDDEVDEKRAFKTNGKPEEKNHEAGTSGCSIDAKQVEEQSAAANEEVLFPFCREPSYFEIPTKEFQQPSQITESTIHEIPTKDTPSSHITGAGHASFTIEFDDSTPGKVTIRDHVTKFTSDQRHKSKKSSPGTQDLLGIQTGMMAPENKVADWLAQNNPPQMLWERTEEDSKSIKSDVPVYLKRLKGNKHDDGTQSDSENAGAHRRCSKRATLEEHLRRHHSEHKKLQKVQATEKHQDQAVVFGVDDNQDYNRPVINEKHKDLIKDWALSSAAAVMEERKPLTTSGFHHSEEGTSSSGSKRWVSQWASLAANHTRHDQEERIMEFSAPLPLENETEISESGMTVRSTGSATSLASQGERRRRTLPQLPNEEKSLESHRAKVVTQRSEIGEKQDTELQEKETPTQVYQKDKQDADRPLSKMNRAVNGETLKTGGDNKTLLHLGSSAPGKEKSETDKETSLVKQTLAKLQQQEQREEAQWTPTKLSSKNVSGQTDKCREETFKQESQPPEKNSGHSTSKGDRVAQSESKRRKAEEILKSQTPKGGDKKESSKSLVRQGSFTIEKPSPNIPIELIPHINKQTSSTPSSLALTSASRIRERSESLDPDSSMDTTLILKDTEAVMAFLEAKLREDNKTDEGPDTPSYNRDNSISPESDVDTASTISLVTGETERKSTQKRKSFTSLYKDRCSTGSPSKDVTKSSSSGAREKMEKKTKSRSTDVGSRADGRKFVQSSGRIRQPSVDLTDDDQTSSVPHSAISDIMSSDQETYSCKPHGRTPLTSADEHVHSKLEGSKVTKSKTSPVVSGSSSKSTTLPRPRPTRTSLLRRARLGEASDSELADADKASVASEVSTTSSTSKPPTGRRNISRIDLLAQPRRTRLGSLSARSDSEATISRSSASSRTAEAIIRSGARLVPSDKFSPRIRANSISRLSDSKVKSMTSAHGSASALKTTRLQSAGSAMPTSSSFKHRIKEQEDYIRDWTAHREEIARISQDLALIAREINDVAGEIDSVTSSGTAPSTTVSTAATTPGSAIDTREEVGDLHGEMHKLVDRVFDESLNFRKIPPLVHSKTPEGNNGRSGDPRPQAAEPPDHLTITRRRTWSRDEVMGDNLLLSSVFQFSKKIRQSIDKTAGKIRILFKDKDRNWDDIESKLRAESEVPIVKTSSMEISSILQELKRVEKQLQAINAMIDPDGTLEALNNMGFPSAMLPSPPKQKSSPVNNHHSPGQTPTLGQPEARALHPAAVSAAAEFENAESEADFSIHFNRFNPDGEEEDVTVQE", "soluble on expression in E. coli": "soluble"}
{"sequence": "MTADRTGHCLCGGVQIAVATVSHEIGACHCEMCRRWTGSAFVTMMVPEAAMTVTGAEHVKAYASSAWAERCFCGSCGSTLWYRLTGPGMPRDYYMAAGLLDDLSGIRLAHEIYIDRKPDAWSFAGPTHQMTEAEFLATLPASPEE", "soluble on expression in E. coli": "not soluble"}
{"sequence": "MAHHHHHHMAAADQLRYAAQMIELARSEEREDGNPLTAARCYTTAMEVIASEASKRAAMIESNEARRFFLFQVRSKLEMYHERAELLLQVANGSGLLDKPSLSNGDASALQTNYPPALFASAVANEKSSSGNGGVASCSTGGGVSVLGIPLQPQQMAPSAPPTQTQSSYGDFKEPPMSCYLKPDDDATAEPPPVTPELNLDELMKNLGAPPEL", "soluble on expression in E. coli": "not soluble"}
{"sequence": "EDAALREEAKGLFEVIPMQAPQLADNNTVTRDKIDLGAMLFFDPRMSKSGVFSCQSCHNVGLGGVDGLETSIGHGWQKGPRNAPTALNAVFNVAQFWDGRAPDLAAQAKGPVQAGVEMNNTPENLVATVQSMPGYVEAFAKAFPGQKDPISFDNFALAVEAFEATLITPNSKFDQWLMGADGAMSADEKAGLKLFIDTGCAACHNGINIGGNGYYPFGVVEKPGAEVLPAGDKGRFAVTATADDEYVFRAGPLRNIALTAPYFHSGKVWDLREAVSVMANSQLGATLDDTQVDQITAFLGTLTGEQPEVVHPILPVRSAQTPRPEHMN", "soluble on expression in E. coli": "soluble"}
{"sequence": "MGSDKIHHHHHHMRVGIIGGGFGLAVQAPIINTHPKMNVSAISTMIRHQVPKNLSTADDSPVHYTDWTKMLDLEELDLVFVSSLPIYHFEMVKYALNKGIHVVCEKPFTMNSVESEELLRLSSDTNTKVFIDFEWRYHPARQKVKELISEVGDILHFEYHISASQYQKLQTNKRGWMGEKQKFGGMLGALGTHMVDCLRWLIQDEIITINGFIHTHVPEGPEELRDSDDAFFIHGKIEGNCTFSIQLISGIHHGFGSNLKVFGSLGTINLIDDKTLFFGKASESLEEIKIETYTQTIPPLSSEAKAYYPAFYPFLDKVYENIIFNKSDKDLPTIVDGHENQIIIDNVLSN", "soluble on expression in E. coli": "not soluble"}
{"sequence": "MSLGEHLEFDEKKIEKIMMIKRSYLNGEISLEEAKIKMQASFDQVTAQEFAICEQYLQKYGISDDVLAERMEEIIEIFDGVLVTTKLNLPSGHPIRTYLDEVDAIRRILGEMREMSKKKFIKNQWAQYYDQLGEINIHFARKQNQLFTALEKKGFDKPSKVMWTLDNNIRDMIKKAKEYLETDQDNAFLEIQDEVIEMVEDMMVKEEEILFPTTMDLLTDEDFIEMRKGDDEIGYCLIDSPLPYGKKENKDTDTSSNNELLKDLANVLQKHGMLTKASNDEVLDVSQGKLTLEQINLLFKHLQVDLSFVDENEIVKFYSDTKHRVFPRSAGVIGREVQNCHPRESVHTVEEIIRAFRAGEHDEAEFWLEMGGKFIYIIYNAVRDEDGNFKGVLEMMQDVTKIRSLTGSQRLLSWGDKEEEPKSKVTEHTGIENEYGITKETIIGDLVKEYPFIKEFLFNLSPKFSKLQNPIVFKTMSSIATVEMISEKGGFEVQDLIDRIVKEIQSRKEGHHHHHH", "soluble on expression in E. coli": "soluble"}
{"sequence": "VALSPLPLPEGLELTGIEGTLWQGQAAQVRWQGMSLGDLNWDLHLSALLLGQLEADIRFGRGSSTQLRGKGVVGVGLSGPYADDFLLSLPAAQAITWLPLPVPLMAQGQLEMAVKQYRFGEPYCQQAEGSLAWSAAQLESPIGALQLGTVVSDFTCQESVVTLKGGQKTAQVSSEFNLSLQPDNRYQAQAWFKPEAEFPESLKEQLSWLPQPDGQGRYPFNQQGQL", "soluble on expression in E. coli": "not soluble"}
{"sequence": "MGSDKIHHHHHHMRLLDLYLTLRLALSTAVHTLAGRVKGRSYVPHPRTMLFIEPTSHCNLECSFCTYRLDRHPRLTLDMERFEDYVAQARAMGFADMVLTPINGDVFMDRTILDKLRLLDRLKDGPGIILYTNLIGASAEQLGEILALARLKMFQVSIYGHDFETFRRITGRGQVQFRRLLANLETIADLVAQGVVPQALSICVRTERHYRLEDEASGELHVLLRRLISLGIPVSVQSCLDDWGGLVAETDLDGLDMPLIRGRLIPKNGACIEPFYNVQILADGRVNACACRSVGEDLIIGDLRQDDLKTILSARNPAYTGLIERQQKGDFPQTCRGCSFYRSIYDRRIRNASPLGHMSLEQFHTFLSRE", "soluble on expression in E. coli": "not soluble"}
{"sequence": "MSLTKSVAIIGAGITGLSSAYFLKQQDPNIDVTIFEASNRPGGKIQSYRKDGYMIELGPESYLGRKTIMTELAKDIGLEQDIVTNTTGQSYIFAKNKLYPIPGGSIMGIPTDIKPFVTTKLISPLGKLRAGLDLIKKPIQMQDGDISVGAFFRARLGNEVLENLIEPLMGGIYGTDIDKLSLMSTFPNFKEKEEAFGSLIKGMKDEKNKRLKQRQLYPGAPKGQFKQFKHGLSSFIEALEQDVKNKGVTIRYNTSVDDIITSQKQYKIVYSNQQEDVFDGVLVTTPHQVFLNWFGQDPAFDYFKTMDSTTVATVVLAFDEKDIENTYDGTGFVIARTSDTDITACTWTSKKWPFTTPEGKVLIRAYVGKPGDTVVDDHTDNELVSIVRRDLSQMMTFKGDPEFTIVNRLPKSMPQYHVGHIQQIRQIQAHIKQTYPRLRVTGASFEAVGLPDCITQGKVAAEEVIAELEGHHHHHH", "soluble on expression in E. coli": "soluble"}
{"sequence": "MNITIVLGDKIPSIKYGGTQRVMWYLGKELNKRGHKVTFIAGKGSSCPFAKVIELDPSVNLNTQIPTDADIVHFNIPVPEGITKPHLLTIHGNGIPANADRNIVFVSRNHAQRLGSESFVYNGLDWDDYGPANLTLSRKNYHFLGKAAWKVKNIKGAIAVVQSIKNAQLDVLGGYRLNLKMGFRFTWNPRIHFHGMVDDSKKKVIIEQSKGLIFPVTWHEPFGLAITESLYFGAPVFGTPYGALPELVSPEVGFLTAHGQEMAEHIQSAQYSPKVCHEYARDLFNSSVMAEAYLKKYETVLNGEPLNKEVPHIIDIARRLPWD", "soluble on expression in E. coli": "not soluble"}
{"sequence": "MKSRIPVVLLACGSFNPITNMHLRMFEVARDHLHQTGMYQVIQGIISPVNDTYGKKDLAASHHRVAMARLALQTSDWIRVDPWESEQAQWMETVKVLRHHHSKLLRSPPQMEGPDHGKALFSTPAAVPELKLLCGADVLKTFQTPNLWKDAHIQEIVEKFGLVCVGRVSHDPKGYIAESPILRMHQHNIHLAKEPVQNEISATYIRRALGQGQSVKYLIPDAVITYIKDHGLYTKGSTWKGKSTQSTEGKTS", "soluble on expression in E. coli": "soluble"}
{"sequence": "MKVIKSNKVTNKFKVSILISTYNKEKFIENTLNNILAQTMNKNDFELIIVDDCSTDNTLDIISKKIESFSNYQFVQLDENSGTPAKPRNLSIDLSKGKYIMFVDGDDWLPSDALENLYTLLKSNKTDYATGLTKYVYSDRIARSGVALSKIAYNKIGLKNFRKSFYHLAPAGRMMKSSVIKKNNIRFPEMIFGEDLQFFAEVFFNTKNISTTQDVVYCANRYDENISLVKSEASTVLNRIKWQNEAYRYLTKKYKNNKIFANLLYRIINKDILEGKFYKKGFIKEIDTLLPVFQDILNTIDNDFNSLDYADDTLNQHALTLIKNGDKEEIIDFVNFYLKKDEKPLYLSNDKYYYVYKENKYKKRMHIILQKIIKKDENIFLKLYSKNSELKYLEIKNRKDPTNYTVLEIKKHLFKTGEYTVQFKANELSKGKLALTVLDKDLNGAAIKSGMQFDFYETVNGNLGYIKKLEHHHHHH", "soluble on expression in E. coli": "soluble"}
{"sequence": "IENYHVEEAENDLTQLANKVAVILENHEDQALARSITWELADNLTSIAIIQDEKNHWYSPNDKNRLSSITVEQIQHDKDLNKALKDHKKVSKRTGLSDTDTDNERLIVGVPYEKDGKKGMVFLSQSLLAVKDTTKHTTR", "soluble on expression in E. coli": "not soluble"}
{"sequence": "MSLASRRTDLIGMIVPDARQPFFGEMAHAVEQAAAERGKMVLVGNSDYVAEREVHYLRAFLGMRVSGLILVSHALNNQAAAEIEAWDARVVLLHERPELIDDVAVVTDDIGGAQLATRHLLEHGYAYVACLGGTAETPSVGDPVSDHVEGWRRAMQEAGIPTEGKLFEAPYNRYDAYQVGLELLAGPNRPPAIFCSTDDQAIGVLRAARELRIDVPGELAVAGFDDVKEAALTDPPLTTIASDRSAMARAAVDLVLDDGLRVAGSRRERLKLFPSRLVVRRSCGCAPQETPGSEGHHHHHH", "soluble on expression in E. coli": "soluble"}
{"sequence": "MRKKKDGQNLPDFRKNPPKLDKKAYEKELKRLQAELVDLQQWVVETGARVVIVMEGRDAAGKGSAIKRITQYLNPRSARIEALPTPNSREKGQWYFQRYIEKLPTAGEIVIFDRSWYNRAGVERVMGFCTSQEYRRFLHQAPIFERLLVEDGIHLRKYWFSVSDEEQIERFEDRLSDPLRRWKLSPMDLQSITRWEDYSRAKDEMFIHTDIPSAPWYTVESEDKKRSRINVISHLLSTIPYEKIDRPLPEIPHRPDSESDYVRPPRDEFRYVPDVAAHLEEERIKKEEKAKKAKKPAKAAGKNSDKQKSSGGKGKKKSKK", "soluble on expression in E. coli": "not soluble"}
{"sequence": "MGSDKIHHHHHHMIYKMTDKDMEILFERISKDFQSFGSKEENGDIVFGDIQRFSDISEEKSSYPPKDFLIERSENILSIPRAEKRAVFGVKSCDLRGFYIMDKQILGKDPFYTVKRENTMFINFVCEKMCSGGFCTSFGGPVLDEYDVQVLHKNGYFYVEASDKYEKYLFGFSESDDQNVFEEHKKEFESLYGRLNVDGIENRMKWSSNLWNKFANYCISCGACNYSCPTCYCVDVYDDDDGRKKEWDSCILEGFTRTAAGNVRPELSERLRQRFYHKFKYYKLSRGAYLCTGCNRCVDDCPVDIDIKEVITHDYDRE", "soluble on expression in E. coli": "not soluble"}
